Measurements published in patent US20030096403A1.

Molecular target: surface antigen S of hepatitis B virus (Greencross Co.) (hepatitis B virus)
Assay: competitive ELISA: antibody pre-incubated with soluble surface antigen S, then plate coated with surface antigen S

B1: humanized antibody HzS-III (antibody, V domains shown)
VH: EVQLVQSGAEVKKPGASVKVSCKASGYTFTDYNVQWVRQAPGKSLEWMGYIYPYSGGTGYSQKFQGRVTLTVDNSASTAYMELSSLRSEDTAVYYCARNYGYDSSAYWGQGTLVTVSS
VL: DIVLTQSPASLAVSPGQRATITCRASESVSNYGINFINWFQQKPGQPPKLLIYTASNKGTGVPARFSGSGSGTDFTLTINPVEAEDTANYFCQQSKEVPYTFGGGTKVEIKR
Ka: 4e+09 M⁻¹
